Target: HLA-A*02:01 (Homo sapiens, UniProt P04439, D140Y/D185E/D98H/E176V/E277Q/G131W/G231S/I119V/I121R/I166T/I218V/L300P/L318F/N151K/N90K/P208A/P217A/Q86G/Q94H/R138H/R169H/T345S)
Experiment: MHC binding assay: UV-ligand exchange with β2m ELISA
Details: binding of HLA-class I restricted peptides to HLA-A*02:01
Description: Candidate peptides for T cell based therapies according to the present invention were further tested for their MHC binding capacity (affinity). The individual peptide-MHC complexes were produced by UV-ligand exchange, where a UV-sensitive peptide is cleaved upon UV-irradiation, and exchanged with the peptide of interest as analyzed. Only peptide candidates that can effectively bind and stabilize the peptide-receptive MHC molecules prevent dissociation of the MHC complexes. To determine the yield of the exchange reaction, an ELISA was performed based on the detection of the light chain (β2m) of stabilized MHC complexes. The assay was performed as generally described in Rodenko et al. (Rodenko et al., 2006).
96 well MAXISorp plates (NUNC) were coated over night with 2 ug/ml streptavidin in PBS at room temperature, washed 4× and blocked for 1 h at 37° C. in 2% BSA containing blocking buffer. Refolded HLA-A*02:01/MLA-001 monomers served as standards, covering the range of 15-500 ng/ml. Peptide-MHC monomers of the UV-exchange reaction were diluted 100-fold in blocking buffer. Samples were incubated for 1 h at 37° C., washed four times, incubated with 2 ug/ml HRP conjugated anti-β2m for 1 h at 37° C., washed again and detected with TMB solution that is stopped with […]. Absorption was measured at 450 nm. Candidate peptides that show a high exchange yield (preferably higher than 50%, most preferred higher than 75%) are generally preferred for a generation and production of antibodies or fragments thereof, and/or T cell receptors or fragments thereof, as they show sufficient avidity to the MHC molecules and prevent dissociation of the MHC complexes.

Substance | Peptide exchange (MHC class I binding score, peptide exchange yield)
79 (GLHQDFPSVVL; listed as Homo sapiens) [compound 79] | +++ (>50 = +++)
80 (GLYGIKDDVFL; listed as Homo sapiens) [compound 80] | ++++ (>75% = ++++)
81 (VLAENPDIFAV; listed as Homo sapiens) [compound 81] | +++ (>50 = +++)
83 (QLLQYVYNL; listed as Homo sapiens) [compound 83] | ++++ (>75% = ++++)
84 (ALMAGCIQEA; listed as Homo sapiens) [compound 84] | ++++ (>75% = ++++)
85 (QLIEKITQV; listed as Homo sapiens) [compound 85] | +++ (>50 = +++)
86 (SLQERQVFL; listed as Homo sapiens) [compound 86] | +++ (>50 = +++)
87 (ALPEPSPAA; listed as Homo sapiens) [compound 87] | +++ (>50 = +++)
88 (LMAPAPSTV; listed as Homo sapiens) [compound 88] | +++ (>50 = +++)
89 (VLDEGLTSV; listed as Homo sapiens) [compound 89] | ++++ (>75% = ++++)
90 (TLNDGVVVQV; listed as Homo sapiens) [compound 90] | ++++ (>75% = ++++)
91 (MLFENMGAYTV; listed as Homo sapiens) [compound 91] | ++++ (>75% = ++++)

Reference: patent publication US10688131B2, “Peptides and scaffolds for use in immunotherapy against head and neck squamous cell carcinoma and other cancers” (Immatics Biotechnologies GmbH, priority 2016, dated 2020)
